B1: CL48-139 (antibody, IgM, V domains shown)
VH: EGQLQQSGAEVVKPGASVKLSCTASGFNIKDTYIHWVKQRPEQGLEWIGRIDPTNGNTKYDPEFQGKATITADTSSNTAYLHLSGLTSEDTAVYYCAKGTLFAYWGQGTLVTVSA
VL: DIKMTQSPSSMYASLGERVTFTCKASQDINNYLTWVQQKPGKSPKTLIYRANRLVDGVPSRFSGSGSGQDYSLTISSLEYEDMGIYYCLQYDEFPPTFGGGTKLEIK
notes: Mouse monoclonal IgM, kappa, from mice immunized with arteriosclerotic plaque homogenate
B2: CL56-369 (antibody, IgM, V domains shown)
VH: QVQLQQPGAELVKPGASVKLSCKASGYTFTSYWMHWVKQRPGQGLEWIGEIDPSDSYTNYNQKFKGKATLTVDKSSSTAYMQLSSLTSEDSAVYYCARGDMDAMDYWGQGTSVTVSS
VL: ETTVTQSPASLSMAIGEKVTIRCITSTDIDDDMNWYQQKPGEPPKLLISEGNTLRPGVPSRFSSSGYGTDFVFTIENMLSEDVADYYCLQSDNLPLTFGAGTKLELK
notes: as for B1

Molecular target: T1, human LDL oxidatively modified by copper sulfate (human, UniProt P04114 28-4563, limits assumed, oxidatively modified by copper sulfate)
T1 construct: Lipoprotein particle; also called oxidized LDL
T1 sequence (P04114 28-4563 limits assumed): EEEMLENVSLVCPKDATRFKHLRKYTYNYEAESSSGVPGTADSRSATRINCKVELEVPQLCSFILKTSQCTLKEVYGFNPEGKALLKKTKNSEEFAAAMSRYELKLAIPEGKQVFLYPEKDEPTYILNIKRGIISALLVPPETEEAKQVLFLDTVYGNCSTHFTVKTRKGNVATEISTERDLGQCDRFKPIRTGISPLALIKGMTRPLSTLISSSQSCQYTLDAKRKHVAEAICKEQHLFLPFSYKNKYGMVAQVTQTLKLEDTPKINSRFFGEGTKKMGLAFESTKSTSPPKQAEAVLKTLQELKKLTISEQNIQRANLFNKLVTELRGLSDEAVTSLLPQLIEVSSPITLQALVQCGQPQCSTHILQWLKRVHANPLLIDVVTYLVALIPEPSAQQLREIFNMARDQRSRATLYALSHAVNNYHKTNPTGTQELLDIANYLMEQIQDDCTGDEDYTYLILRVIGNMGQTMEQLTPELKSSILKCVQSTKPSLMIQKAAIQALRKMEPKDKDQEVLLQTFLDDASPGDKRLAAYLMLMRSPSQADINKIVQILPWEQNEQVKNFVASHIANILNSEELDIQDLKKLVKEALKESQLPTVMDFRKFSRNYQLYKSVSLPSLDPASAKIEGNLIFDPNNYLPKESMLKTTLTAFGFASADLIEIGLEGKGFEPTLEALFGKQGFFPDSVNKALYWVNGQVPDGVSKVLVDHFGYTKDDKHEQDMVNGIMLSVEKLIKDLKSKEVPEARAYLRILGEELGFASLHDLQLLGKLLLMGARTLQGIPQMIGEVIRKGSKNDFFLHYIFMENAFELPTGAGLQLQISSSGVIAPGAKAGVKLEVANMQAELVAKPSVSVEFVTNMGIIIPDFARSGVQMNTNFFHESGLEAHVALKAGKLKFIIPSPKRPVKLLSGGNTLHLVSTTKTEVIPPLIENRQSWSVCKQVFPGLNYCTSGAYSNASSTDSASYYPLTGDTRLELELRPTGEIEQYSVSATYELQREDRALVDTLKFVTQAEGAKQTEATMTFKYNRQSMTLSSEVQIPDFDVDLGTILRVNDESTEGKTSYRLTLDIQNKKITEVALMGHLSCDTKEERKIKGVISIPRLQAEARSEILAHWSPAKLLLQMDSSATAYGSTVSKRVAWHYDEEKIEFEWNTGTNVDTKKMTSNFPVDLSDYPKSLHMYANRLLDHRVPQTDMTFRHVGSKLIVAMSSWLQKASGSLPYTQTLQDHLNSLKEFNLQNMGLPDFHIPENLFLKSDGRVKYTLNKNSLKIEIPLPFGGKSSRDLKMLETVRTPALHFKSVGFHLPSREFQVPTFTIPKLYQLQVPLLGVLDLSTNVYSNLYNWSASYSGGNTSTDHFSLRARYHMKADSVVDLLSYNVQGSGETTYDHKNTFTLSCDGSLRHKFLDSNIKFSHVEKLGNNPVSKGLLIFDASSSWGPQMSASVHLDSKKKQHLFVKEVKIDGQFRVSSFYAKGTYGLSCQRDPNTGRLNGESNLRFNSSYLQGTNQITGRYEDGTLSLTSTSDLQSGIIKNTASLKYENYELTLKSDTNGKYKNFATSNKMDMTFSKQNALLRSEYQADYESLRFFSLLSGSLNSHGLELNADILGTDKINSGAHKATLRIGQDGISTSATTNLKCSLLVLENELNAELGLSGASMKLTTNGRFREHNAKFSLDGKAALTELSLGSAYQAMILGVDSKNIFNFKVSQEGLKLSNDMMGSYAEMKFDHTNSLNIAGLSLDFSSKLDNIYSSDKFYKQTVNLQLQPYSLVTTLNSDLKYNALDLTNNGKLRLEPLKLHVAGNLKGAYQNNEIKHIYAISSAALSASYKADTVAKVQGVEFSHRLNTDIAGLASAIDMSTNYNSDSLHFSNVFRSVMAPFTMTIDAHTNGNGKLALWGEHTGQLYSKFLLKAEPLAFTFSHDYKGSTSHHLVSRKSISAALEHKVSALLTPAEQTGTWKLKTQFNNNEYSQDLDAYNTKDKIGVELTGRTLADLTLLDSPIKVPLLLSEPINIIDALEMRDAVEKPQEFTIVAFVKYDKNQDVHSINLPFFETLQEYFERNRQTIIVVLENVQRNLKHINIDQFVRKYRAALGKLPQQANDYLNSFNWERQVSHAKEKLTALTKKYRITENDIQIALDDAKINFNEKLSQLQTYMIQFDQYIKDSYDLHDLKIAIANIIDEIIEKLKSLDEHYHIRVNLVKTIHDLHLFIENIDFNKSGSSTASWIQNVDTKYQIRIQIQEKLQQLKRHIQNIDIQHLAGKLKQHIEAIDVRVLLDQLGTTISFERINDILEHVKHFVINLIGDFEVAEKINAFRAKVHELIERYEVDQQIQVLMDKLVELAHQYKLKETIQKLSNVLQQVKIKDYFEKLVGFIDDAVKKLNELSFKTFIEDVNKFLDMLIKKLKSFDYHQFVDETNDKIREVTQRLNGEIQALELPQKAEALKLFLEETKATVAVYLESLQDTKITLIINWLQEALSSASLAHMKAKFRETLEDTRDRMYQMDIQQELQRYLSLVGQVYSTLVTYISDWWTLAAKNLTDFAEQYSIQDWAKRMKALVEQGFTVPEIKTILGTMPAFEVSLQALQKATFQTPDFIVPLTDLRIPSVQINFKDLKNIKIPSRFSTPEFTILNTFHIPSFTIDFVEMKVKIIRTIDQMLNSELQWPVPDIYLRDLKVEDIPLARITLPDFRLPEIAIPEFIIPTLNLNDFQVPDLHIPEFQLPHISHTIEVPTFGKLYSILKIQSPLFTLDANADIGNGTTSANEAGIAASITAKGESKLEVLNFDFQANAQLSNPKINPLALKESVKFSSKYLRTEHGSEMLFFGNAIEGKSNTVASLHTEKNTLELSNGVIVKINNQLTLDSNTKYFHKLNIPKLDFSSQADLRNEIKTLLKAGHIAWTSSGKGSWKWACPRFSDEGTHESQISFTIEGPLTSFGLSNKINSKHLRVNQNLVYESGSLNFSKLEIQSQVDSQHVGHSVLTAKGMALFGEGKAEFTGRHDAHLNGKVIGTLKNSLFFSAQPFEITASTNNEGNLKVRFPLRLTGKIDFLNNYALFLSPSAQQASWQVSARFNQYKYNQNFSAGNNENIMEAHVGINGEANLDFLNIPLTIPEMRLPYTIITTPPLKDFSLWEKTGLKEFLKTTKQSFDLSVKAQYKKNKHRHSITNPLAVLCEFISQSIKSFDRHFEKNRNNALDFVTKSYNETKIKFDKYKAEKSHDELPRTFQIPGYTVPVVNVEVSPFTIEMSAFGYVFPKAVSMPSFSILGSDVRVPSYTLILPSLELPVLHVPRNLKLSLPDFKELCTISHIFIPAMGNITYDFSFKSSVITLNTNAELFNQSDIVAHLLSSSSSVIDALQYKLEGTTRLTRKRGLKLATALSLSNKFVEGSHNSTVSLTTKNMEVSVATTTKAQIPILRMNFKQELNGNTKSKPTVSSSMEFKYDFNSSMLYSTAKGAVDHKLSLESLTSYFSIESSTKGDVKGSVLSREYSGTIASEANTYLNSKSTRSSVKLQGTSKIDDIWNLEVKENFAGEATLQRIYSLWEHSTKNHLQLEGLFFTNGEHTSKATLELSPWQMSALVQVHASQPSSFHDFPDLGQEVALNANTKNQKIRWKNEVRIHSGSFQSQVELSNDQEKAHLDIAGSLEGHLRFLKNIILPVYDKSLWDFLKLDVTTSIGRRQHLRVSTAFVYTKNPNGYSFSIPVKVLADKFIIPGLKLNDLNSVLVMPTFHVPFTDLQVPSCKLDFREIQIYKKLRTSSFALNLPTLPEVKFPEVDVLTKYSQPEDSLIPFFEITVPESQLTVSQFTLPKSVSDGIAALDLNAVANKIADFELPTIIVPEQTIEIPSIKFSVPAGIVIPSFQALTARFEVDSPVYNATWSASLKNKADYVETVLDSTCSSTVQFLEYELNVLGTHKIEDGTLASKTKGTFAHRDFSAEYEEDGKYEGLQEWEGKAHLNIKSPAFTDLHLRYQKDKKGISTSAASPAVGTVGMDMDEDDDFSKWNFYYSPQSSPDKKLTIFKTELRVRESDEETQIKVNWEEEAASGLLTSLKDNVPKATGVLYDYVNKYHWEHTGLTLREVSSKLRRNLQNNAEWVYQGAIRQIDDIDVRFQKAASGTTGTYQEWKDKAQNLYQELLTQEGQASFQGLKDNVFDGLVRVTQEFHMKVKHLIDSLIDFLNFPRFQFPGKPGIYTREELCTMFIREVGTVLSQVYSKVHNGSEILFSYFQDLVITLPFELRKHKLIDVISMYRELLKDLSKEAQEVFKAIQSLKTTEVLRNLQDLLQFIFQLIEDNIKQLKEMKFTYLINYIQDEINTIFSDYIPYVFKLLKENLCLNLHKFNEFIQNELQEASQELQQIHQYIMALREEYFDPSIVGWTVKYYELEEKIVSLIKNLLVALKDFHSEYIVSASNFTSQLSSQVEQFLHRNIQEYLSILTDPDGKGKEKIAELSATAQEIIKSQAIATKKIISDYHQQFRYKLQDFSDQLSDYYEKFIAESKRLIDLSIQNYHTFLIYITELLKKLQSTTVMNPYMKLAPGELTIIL
Assay: ELISA on immobilized Cu-oxidized human LDL, anti-mouse IgM-HRP
Protocol: 50 μl of […] human LDL oxidatively modified by copper sulfate was added to each well of 96-well microtiter plates (Immulon-2), and incubated at 4° C. overnight. After washing with PBS-Tween, the plates were blocked with 0.5% BSA-PBS. Test samples (culture supernatants appropriately diluted with PBS containing 0.1% BSA) were incubated in the plates at room temperature for one hour. After the plates were washed three times with PBS-Tween, an HRP-labeled anti-mouse IgM antibody was incubated in the plates at room temperature for one hour. After the plates were washed three times with PBS-Tween, 0.03% H₂O₂ and 0.1 M citrate buffer […] containing 0.4 mg/ml orthophenylenediamine (OPD) were added to the plates. After ten minutes of incubation, the reaction was stopped by adding an equal volume of 2N H₂SO₄. Absorbance was measured at 490 nm (FIG. 2). FIG. 2 is a graph showing the reactivities of monoclonal antibodies to NLO and oxidized LDL. The monoclonal antibodies were produced by hybridomas of the established five clones.

Row | Binder | binding result
1 | B1 | no binding
2 | B2 | no binding

From patent US20110182817A1 (NATIONAL UNIVERSITY CORPORATION OKAYAMA UNIVERSITY, published 2011)
